B1: Notch4 RAMANK (domain or fragment, human, UniProt Q99466 1472-1833, looked up)
chain: RRRRREHGALWLPPGFTRRPRTQSAPHRRRPPLGEDSIGLKALKPKAEVDEDGVVMCSGPEEGEEVGQAEETGPPSTCQLWSLSGGCGALPQAAMLTPPQESEMEAPDLDTRGPDGVTPLMSAVCCGEVQSGTFQGAWLGCPEPWEPLLDGGACPQAHTVGTGETPLHLAARFSRPTAARRLLEAGANPNQPDRAGRTPLHAAVAADAREVCQLLLRSRQTAVDARTEDGTTPLMLAARLAVEDLVEELIAAQADVGARDKWGKTALHWAAAVNNARAARSLLQAGADKDAQDNREQTPLFLAAREGAVEVAQLLLGLGAARELRDQAGLAPADVAHQRNHWDLLTLLEGAGPPEARHKATP
B2: Notch3 RAMANK (domain or fragment, human, UniProt Q9UM47 1663-2038, looked up)
chain: MVARRKREHSTLWFPEGFSLHKDVASGHKGRREPVGQDALGMKNMAKGESLMGEVATDWMDTECPEAKRLKVEEPGMGAEEAVDCRQWTQHHLVAADIRVAPAMALTPPQGDADADGMDVNVRGPDGFTPLMLASFCGGALEPMPTEEDEADDTSASIISDLICQGAQLGARTDRTGETALHLAARYARADAAKRLLDAGADTNAQDHSGRTPLHTAVTADAQGVFQILIRNRSTDLDARMADGSTALILAARLAVEGMVEELIASHADVNAVDELGKSALHWAAAVNNVEATLALLKNGANKDMQDSKEETPLFLAAREGSYEAAKLLLDHFANREITDHLDRLPRDVAQERLHQDIVRLLDQPSGPRSPPGPHG
B3: Notch1 RAMANK (domain or fragment, human, UniProt P46531 1758-2127, looked up)
chain: RKRRRQHGQLWFPEGFKVSEASKKKRREPLGEDSVGLKPLKNASDGALMDDNQNEWGDEDLETKKFRFEEPVVLPDLDDQTDHRQWTQQHLDAADLRMSAMAPTPPQGEVDADCMDVNVRGPDGFTPLMIASCSGGGLETGNSEEEEDAPAVISDFIYQGASLHNQTDRTGETALHLAARYSRSDAAKRLLEASADANIQDNMGRTPLHAAVSADAQGVFQILIRNRATDLDARMHDGTTPLILAARLAVEGMLEDLINSHADVNAVDDLGKSALHWAAAVNNVDAAVVLLKNGANKDMQNNREETPLFLAAREGSYETAKVLLDHFANRDITDHMDRLPRDIAQERMHHDIVRLLDEYNLVRSPQLHGA
B4: Notch2 RAMANK (domain or fragment, human, UniProt Q04721 1699-2076, looked up)
chain: MAKRKRKHGSLWLPEGFTLRRDASNHKRREPVGQDAVGLKNLSVQVSEANLIGTGTSEHWVDDEGPQPKKVKAEDEALLSEEDDPIDRRPWTQQHLEAADIRRTPSLALTPPQAEQEVDVLDVNVRGPDGCTPLMLASLRGGSSDLSDEDEDAEDSSANIITDLVYQGASLQAQTDRTGEMALHLAARYSRADAAKRLLDAGADANAQDNMGRCPLHAAVAADAQGVFQILIRNRVTDLDARMNDGTTPLILAARLAVEGMVAELINCQADVNAVDDHGKSALHWAAAVNNVEATLLLLKNGANRDMQDNKEETPLFLAAREGSYEAAKILLDHFANRDITDHMDRLPRDVARDRMHHDIVRLLDEYNVTPSPPGTVL

Molecular target: Human CSL spanning residues 25-449 (human, UniProt Q06330 25-449)
Experiment: ITC

Sequence of Human CSL spanning residues 25-449 (Q06330 25-449): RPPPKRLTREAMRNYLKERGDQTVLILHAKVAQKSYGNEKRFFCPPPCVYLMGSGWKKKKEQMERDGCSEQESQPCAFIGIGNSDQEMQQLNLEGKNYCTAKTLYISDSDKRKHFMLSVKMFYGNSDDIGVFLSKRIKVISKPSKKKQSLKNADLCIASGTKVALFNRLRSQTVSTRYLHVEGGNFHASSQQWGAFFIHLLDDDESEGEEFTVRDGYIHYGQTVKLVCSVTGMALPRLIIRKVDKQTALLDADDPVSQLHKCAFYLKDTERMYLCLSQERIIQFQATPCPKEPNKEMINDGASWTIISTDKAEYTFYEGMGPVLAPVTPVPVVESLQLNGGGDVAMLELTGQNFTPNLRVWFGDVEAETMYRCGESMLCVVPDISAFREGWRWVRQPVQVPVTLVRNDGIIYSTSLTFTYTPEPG

| Binder | Kd [nM] |
| --- | --- |
| B1 | ≤ 100 |
| B2 | ≤ 100 |
| B3 | ≤ 100 |
| B4 | ≤ 100 |
